Measurements from the NTF2 design screens of Basanta et al. (2020).

Test: protease stability score; higher = more stable; yeast display proteolysis, trypsin and chymotrypsin;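 note: relative to predicted unfolded state with 0 unfolded-like and 1 meaning tenfold more protease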

DELWELAFFIMKILLHLHLTGDEEMWSSYADPNVRFTLRVGDKEVKRHGMEDVEKFQTELEREIRVDHFDERRTHYYNGRARVDGHIDGLVNGRPVHFRTELHVHTIDGVVREVEIIIE
protease stability score: -0.045

DEMDEHARDLFELLLRIWLTGDEHELRELADPHVRIHVGDKNHVGMDKFAHEFIRHVQERGVRIEIRIRDHHAINGVSHSDGEIVLNYDGREYRMDTKIIMVIYNGKVKELRFHIR
protease stability score: 1.39

DEMDEISKEAWRMLKEITRTGDEDLMHKNVDPNARVIYGDKVVHGRERVTKILVEMRIDHEEHRDSRVVGNKVELDVHFDGEFDGRRFRTDVHWVIVKINGQWRIKEHVIL
protease stability score: 1.22

DEMDELAERIYETWVKRHLTGDEKVIEELMDPNVRIDIVVGDKKIHLIGRETASSFARRWFDHLRIDDMRMHSVETINGQIHSEVEVHRRIGDKERFILTRIEMHVINGKIHSIRLEIE
protease stability score: 1.1

DEMDEVMERWAREYISWEKTGDEEKAKKYVDPNVKTHIDFNGRHVENIGMESEFNFFRELGITIHDIKIREIELQGDKVRIKGRIVFQIGDFEIIIERTVHIVVINGQDRHSEFRFE
protease stability score: 0.194

DEMDHWVMEMFEHLLKLFLTGDEEKWERLADPNVKTRFIINGKDVRLHGREHFKKLVDELRITSVDLRDIRAVGNKAEVEGRVEGEFDGQTHILDMRVRFEIINGKLKKEEYVIR
protease stability score: 1.27

DEMEDSSRWALEVEMKSFKTGDERSLYEMVDPHAKFEFENHHDHGRSAVELWREQADHMHIDFRLKDMRLVGDFIIIHGVELVHNHVNGRDIDLNLDVRIISRKINGRWILHHVLFR
protease stability score: 1.38

DEMEEESHTVLKLIVESFRTGDEEEVRHLADPNVRLDVDGQRNHGWKMLLKFFRQIRWHDVELHDIELQGDKMHIIGHVDGNVNGRRRRLDTHILLVKIDGKWRLELVHIH
protease stability score: 1.55

DEMEEHSRHLVELFWHWTDTGNEDLIRKNADPNVRLEVNGVHAHGWELYIRMMNQIRIEDRKINDVEVQGDKMRVDGEVQIYYNGKRVDDHLKLHLVVVDGKLKSVHRELE
protease stability score: 1.31

DEMEEKIRTHMSLLVEYLDTGDEEITKSMLDPNTMAFYGDKLHIGREEAEEILREIRVHHLDIKRIDHQGDKIRVDGEMDGIVNGKRYRTRVEIFSTKINGRWIIEQRVIR
protease stability score: 1.04

DEMEEQIKRLIHLLAHYLRTGDEHSTEELADPNVRIHIDGKEYHGRELFIKFLHERLRHLGIKHIHIHIKDIREIDGRIHIDGELEQHIDGKERRMKQEMLVEKIDGQWHIKELEIE
protease stability score: 2.59

DEMEESAERMIEIYLRWLETGDEDSLVENIDPNVRVEIGDKRYHGREEVMHFLSSIQQRIKGARFHLKHFEIQGEYVDIHMEQRVGDKTMDRRVIFQKIDGRWLLKRSQVR
protease stability score: 1.5

DEMEETTERITRLIHHYHRTGDWRLLSDLFDPHAKSEVNGVRLHGWHEMREFFENEMRELGIENVRFRYHLHDYRIFDGRVDLDVRLEIRIGDKEDHMESHIHTEKVNGQWRLRTLSLN
protease stability score: 0.412

DEMEKMSRDVHKQLKNAFETGDESEMERLLDPHAKIDIGDKRLHGMEEYSHLLHEWRIKDLHIKDIQVQGDKAISDTHRYLEIGDKEYEREVIVYVIKVDGRWIIHSLVFR
protease stability score: 0.777

DEMEKWSEMALDLIAETVETGDEHTYRRNFDPHTRVNVNGRHLHGMEVWLKELHELGIDRIEMDMKDIRIQGDKAIIILTLIINGRFHHVSIVSVKIDGRWHLHSVKYD
protease stability score: 0.33

DEMEREVEKWVRIYLHALRTGDERILENMVDPEARTHINGRHDHGRDSLHKILKEMGFDHMHVEIRDVRVVNGQIHLEEIIRVDVDGRRITITVEVVIVKIDGRWIVKSFHIR
protease stability score: 1.17

DEMERIIETALELLIKSERTGDEDLYREFLDPHTIIDINGKIIHGREEFVRWFTEIRVHELKLRDMEIQGEFAIIYGEVDGRIGDKHFHTSVRLIVYKIDGRWIMRWNELN
protease stability score: 1.42

DEMERNEELALKIIEETQRTGDWHMIYEQLDPHVRIIIGDKTLVGREHVEEWLHRIDHLHVDDMKLEHSRPINGRILLDVHMHVHIRYGDKQVKHTTHVHIIMFKFNGRWYLKIVHIH
protease stability score: 2.65

DEMHEYTERLLHLLTFAQITGDERIHERLADPNVKIHINGREFHGREEVWHSLEEIRVRHTELRESDIQGDKINVNGDVDLHFNGVDIVTKVRIVVDKVNGRWRISFLRID
protease stability score: 0.546

DEMKEEQRKFSELAIHNFETGDEDTFHRLADPHTKVEINGVLHIGRETVTTFFSHYWELFGVDHFEEKDRKIEIQGEKVITRIRGIIHFNGRQTDVLIRLEIRKINGRWILHSFTIEHI
protease stability score: 0.579

DEMKEWIRELIERWTHAFLTGDEDELKRLVDPHAKLDINGRDVIGREDFVEHLRRLFEELGVKHVSSRMRDIKIVNGRAHVDSEFRLRVGEKQESHRMHIISDKYNGRWVIQSIHVE
protease stability score: 1.93

DEMQEVLERFAHEWFHNLHTGDEDTLLKLADPNVRVHVGDKDLIGRELWKEELHKMKGLKLELHDYHAINGRIHLDVTQKFNGKEVELEMDIIVVNGRVKEIRHQRR
protease stability score: 1.06

DEMREEVETILKLMEEWEKTGDFETILTYLDPNARLHENINGRELHSHGREFIHWAYEFFKNLRIETVQEDEVHIFENHFQIRVTLKGTINGRHYIFHRIIIINAIDGRIRHEVILYK
protease stability score: 1.53

DEMRKYAHEYFKLLIELLLTGDEDSMLHNIDPNVRFDEHAENHRVHIHGMESLREWLDHFLKHAWITHIHESDSRVFNGRMHLIGHTRIYIDGKLEIKEIRIEFIVINGRITHYRVEVN
protease stability score: 1.52

DEMRRDVDETLKELLEAWETGDEEKVSHLMDPNVRIHIGDKTLVGRELVREEVRHLRYHDYDVHHIRVIGEKADIDGVLDGNVNGRRENRKIHLHLLKVDGRWFFEETRFE
protease stability score: -0.004

DEMTEDSERAMEILVRSILTGDEKDLIELADPNVRLDVNGRDYHGWKNFIKVFKKIMDELRIKDTELKDVRNQGEKAILDTRIHGIINGREIIFESSIDHRKINGVWLIERIIIK
protease stability score: 1.1

DEMTHEIKRFLKEILRSSRTGDEHTDKHLMDPNVKIHYGEFHFHGREQAANFLSELRIHHVHIRDVDVQGDKATIDTEMDVEYNGQRYIFDVTLIMQKIDGRWLIKKVRYE
protease stability score: 1.3

DENDTARKIIKTLLDIMREGDEDKLRDQMDPNVRADVGDKTVHGREHAAKFLAHIVKRADHISITLKSLHNHNGRLRMQAEVRIVHNGRTERVTLEMVFRDHNGKLLIERMKYG
protease stability score: 2.36

DENEDRIRHLLELHFHALETGDEKKTHDLFDPNTRVEVGDKTLHGRELVSKHVAEDLIKIKGLTVRIRDWNIVGDKVVVDSRVEFNGVRVETILVALKVDGRWLVKSIHIH
protease stability score: 0.42

DENEEDSKRAVELIEDSMKTGDEELMTKQMDPNVRVDYNGKEHHGWEHAKRWFHLMGVDHLHLHRVRLINGVVHLDVDSRINGREFKVHITALKVDGQWVLKEISIR
protease stability score: 1.26

DENEELLTDMIRLLKNVLETGDEEHFHRLADPHVRFKIGDKIFHGREEATRIFSEVMERFKNVRLRLEHIEIIGDKITIHTRIDVGDKSYEMHIHARKVNGKWIMETLFIR
protease stability score: 1.17

DENEEQLEDSVRMYIEAVQTGDEDSLRKLMDPHWRLEYGDKELHGRWALEVRHKFFKGMRIHHIEVHSVEIQGDKAKIIIHVLMEFDGRRLHIKTEVTVQKINGRWFNHSEKIN
protease stability score: 1.14

DENEETMRHYFELLVRNLRTGDWHSLTRLMDPHVRLEYNGREFHGMEEVIRFLLHIRLRHLHLERVEIQGDKVRMHVSVDGEVNGRREEWDVELIARKIDGRWIQTSEIYR
protease stability score: 0.212

DENEHIAREFLRQFLRQVETGDEYRLMELMDPNARINFDGKDLHGRDEWIRKIREIRFDQTHIHDVRIQGNKMEVDTRWDGEINGVRTIFDVHMDIRKVDGKWIIKVINIH
protease stability score: 1.66

DENEHQTRIWNEIFIKIFLTGDWKRLSDMADPHVRSIINGQDLHGMENLSKIVEEIREELRVRSVHLHDIKVINGVAKVDTRLDMEYGDKRTDYNIEIHTLKVDGRWHLKEIKLV
protease stability score: 0.292

DENEQEARKAIEELIHNRETGDEQRMSELLDPHTRIDYNGVEVHGRHYLLKLLRRIDHSRFNLRRLDIQGEKIIMEGELELDVNGVKIRIKLTEIILKVNGRWILHSSRIE
protease stability score: 1.95

DENERRYNELSRLLFEWFLTGDEKMLSNFMDPNAKAEVNGKEEHGREELIRIYHDWLRKAGVDHIQPRHLETRHFDGRVHVHINVDVLINGKILHIHIDIDMVKIDGKWIIKHIRIHER
protease stability score: 1.2

DENETALREVIKRYFKAILTGDEHELENLLDPNVRVEINGVKLHGMRDYLEWIREWRIKDMRIRIEHVEVIGNKMIIDSRLRVNETVNGVTRDREKKLHLIVTKINGRWHIEEINEE
protease stability score: 2.16

DENHEIVKRALEIIVVALLTGDFDTLTELFDPEVRIQVGDKHLHGREDFWKWLKELITRADHNDFKVESIEVQGDKMVIDGEMIIHYNGREHRYKTEVIILKIDGRWVVKRIHYE
protease stability score: 1.65

DENHEVAEYILKILVESLETGNEELFKRLIDPNVRIEINGVEVHGWQFWIDHIDELRIRRVEAILRDAREYNGRIDMDTELKMDGEIDGVRTETSRRVRMVLEKVNGRWYVREIRIE
protease stability score: 2.39

DENHRHASELIEIFRHALATGDWETLYRLMDPHTRVLINGKDLHGMEEHLTFLLEEHERLGIENIDVRVRIDHREVQGDKIIIHITIHLNFNGREIYFESRIIVSKFNGRWSIESLEIR
protease stability score: 1.42

DENKETIDRVYRLLDEALKTGDFEIFAYLMDPHVRNDVDGVDIVGRDLVKKVLEDIIRDLGFKHETLKVHDWRSINGRVHIDTEVELDVNGVDLRKRTIIIALKINGKWRITEIVFE
protease stability score: 2.33

DENKKAFEEAVSWFRHTSETGDEELFNDLVDPDTRTNYNGVSYHGWKEYEEYLRLIRELLGIKVVKHVHIHSVDVQGDFIHMDVELNLHYNGRERIERSHIRAFKVNGRWRMKSMIVV
protease stability score: 0.362

DENRELMERIARLVLHWLHTGDEHFIERLVDPHARVQQGDKEDHGMDRVVEMWNELRVHHVELRHLEVFENHATIHGEIDGEINGQRVRLDFHIHIHIVDGRMETIHVHFR
protease stability score: 2.1

DENRKFARVMTELILHSWYTGDWELDVKLADPNVLNDFNGKEIHGMENVSRQFIEMRIDDVRIRDLRIEVYGEKLISKIDGERNGHFDGRTVDTRMHLELIMEKINGRWIIREIRIEVK
protease stability score: 2.59

DENRQDLEHFHKVLLKLLETGDENMIARLADPNVREDVNGVDNHGMKDLERTLREIHERVDHIHHVHIHRVDVINGRAHLDGTLRGHVNGVSFQHRETVIYLKFNGRWVLHSVHLK
protease stability score: 1.2

DENRRHELEIAQILLHAWVTGDEHILRRFADPDMQFVLEFDGKTIDLHGRELVISFFRDLVDKLGVDHITLESHRVINGRTHIDTRVIFNGVDREEKIHIHIVNGRLKHLELRVH
protease stability score: 1.22

DENSHALEIAFRLFLEYYYTGDPDEMVELADPRTRLFVGEYDSHGREQFETLLREEFKRLGIDVQHITEWEIHVQGDKVILHVRVHEVFNGKETETEIHITMHKIDGRWLISSQKRRIV
protease stability score: 0.626

DENTENEHNIAEVIIEAFETGDWEMLWRMADPNTLLEIIIGDKRMEIHGMHIFVKYWVEFQDRFKNVRISLKSYHVYDGRIELHMNLNFNGRRVEEEVLIYFINGRVKRIHIRHH
protease stability score: 2.8

DENTESVHWLIRVLIQSARTGDEDSMRHLFDPNTKLNINGQEIHGREVAEEWANRVDHIEHVELHRIRNIDGQLDVEGKMRGTVNGKRDENRIELIIIKVDGQWFLRSIRIE
protease stability score: 1.57
